# Assays:
# Settings in all cases: remark: other sources report otherwise
# [1] = target: T1, LFA-1 (lymphocyte function-associated antigen-1), purified heterodimer captured on ELISA plates (human), P20701
# [2] = target: T1, LFA-1 (lymphocyte function-associated …); test: LFA-1/small molecule ELISA: sICAM-1 titrated against 25 nM fluorescein-labelled compound 2B on antibody-captured LFA-1
# [3] = target: T1, LFA-1 (lymphocyte function-associated …); test: LFA-1/ICAM-1 ELISA: sICAM-1 titrated against ICAM-1-Ig on antibody-captured LFA-1; reference compound 3 (2 nM IC50)
# T1 sequence (P20701 26-1170 limits assumed, form in doubt, chain 1 of 2): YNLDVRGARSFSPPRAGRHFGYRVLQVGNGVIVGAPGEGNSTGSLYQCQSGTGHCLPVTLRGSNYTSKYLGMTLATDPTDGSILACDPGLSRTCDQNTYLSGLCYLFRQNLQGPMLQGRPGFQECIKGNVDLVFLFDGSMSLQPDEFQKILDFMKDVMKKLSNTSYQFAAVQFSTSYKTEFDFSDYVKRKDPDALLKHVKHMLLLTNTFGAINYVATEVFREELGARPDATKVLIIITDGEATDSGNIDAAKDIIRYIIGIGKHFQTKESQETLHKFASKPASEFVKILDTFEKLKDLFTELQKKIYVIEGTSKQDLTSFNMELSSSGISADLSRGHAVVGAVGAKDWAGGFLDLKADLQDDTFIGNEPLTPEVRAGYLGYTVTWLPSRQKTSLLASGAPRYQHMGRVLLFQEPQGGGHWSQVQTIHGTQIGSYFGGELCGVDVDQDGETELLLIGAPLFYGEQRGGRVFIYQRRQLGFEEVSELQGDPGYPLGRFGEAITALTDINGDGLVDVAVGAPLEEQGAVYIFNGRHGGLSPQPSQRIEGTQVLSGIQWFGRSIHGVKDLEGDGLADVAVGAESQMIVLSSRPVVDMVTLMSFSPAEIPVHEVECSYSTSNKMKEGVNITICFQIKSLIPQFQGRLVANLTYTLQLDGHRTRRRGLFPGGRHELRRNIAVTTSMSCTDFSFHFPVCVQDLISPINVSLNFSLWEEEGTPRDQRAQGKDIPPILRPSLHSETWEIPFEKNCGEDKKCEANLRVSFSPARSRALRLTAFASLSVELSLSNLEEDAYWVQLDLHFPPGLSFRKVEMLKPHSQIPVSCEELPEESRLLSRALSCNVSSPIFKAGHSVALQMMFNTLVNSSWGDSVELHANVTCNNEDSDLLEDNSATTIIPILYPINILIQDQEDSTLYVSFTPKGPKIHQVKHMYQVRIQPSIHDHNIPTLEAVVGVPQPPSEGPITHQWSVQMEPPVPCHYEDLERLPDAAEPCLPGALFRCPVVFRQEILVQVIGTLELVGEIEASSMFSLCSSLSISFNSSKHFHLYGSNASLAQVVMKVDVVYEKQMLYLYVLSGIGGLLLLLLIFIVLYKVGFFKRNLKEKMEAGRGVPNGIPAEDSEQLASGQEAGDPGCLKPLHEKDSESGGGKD
# T1 sequence (P05107 23-769 limits assumed, form in doubt, chain 2 of 2, further chain): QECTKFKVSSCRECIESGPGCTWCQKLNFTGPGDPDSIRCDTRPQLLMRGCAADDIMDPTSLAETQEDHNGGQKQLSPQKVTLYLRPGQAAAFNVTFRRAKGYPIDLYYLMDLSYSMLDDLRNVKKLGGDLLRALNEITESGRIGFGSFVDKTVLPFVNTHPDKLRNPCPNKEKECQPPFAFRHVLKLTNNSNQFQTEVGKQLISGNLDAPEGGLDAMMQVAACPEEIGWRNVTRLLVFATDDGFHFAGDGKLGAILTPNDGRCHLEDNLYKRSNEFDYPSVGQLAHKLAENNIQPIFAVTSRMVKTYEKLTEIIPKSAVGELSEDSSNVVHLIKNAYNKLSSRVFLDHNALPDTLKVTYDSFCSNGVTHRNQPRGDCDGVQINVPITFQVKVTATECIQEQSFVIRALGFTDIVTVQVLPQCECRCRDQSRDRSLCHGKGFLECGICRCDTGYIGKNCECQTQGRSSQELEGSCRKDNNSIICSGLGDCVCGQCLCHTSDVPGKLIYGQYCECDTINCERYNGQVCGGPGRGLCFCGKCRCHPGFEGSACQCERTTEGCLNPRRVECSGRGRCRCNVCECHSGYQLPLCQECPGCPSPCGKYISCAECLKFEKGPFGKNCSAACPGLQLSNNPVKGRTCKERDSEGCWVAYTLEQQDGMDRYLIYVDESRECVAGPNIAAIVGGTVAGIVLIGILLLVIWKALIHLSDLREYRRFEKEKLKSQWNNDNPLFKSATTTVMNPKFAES
binder,measurement,setting,value
"sICAM-1 (soluble ICAM-1), P05362 28-480 (ligand, UniProt P05362 28-480, looked up) QTSVSPSKVILPRGGSVLVTCSTSCDQPKLLGIETPLPKKELLLPGNNRKVYELSNVQEDSQPMCYSNCPDGQSTAKTFLTVYWTPERVELAPLPSWQPVGKNLTLRCQVEGGAPRANLTVVLLRGEKELKREPAVGEPAEVTTTVLVRRDHHGANFSCRTELDLRPQGLELFENTSAPYQLQTFVLPATPPQLVSPRVLEVDTQGTVVCSLDGLFPVSEAQVHLALGDQRLNPTVTYGNDSFSAKASVSVTAEDEGTQRLTCAVILGNQSQETLQTVTIYSFPAPNVILTKPEVSEGTEVTVKCEAHPRAKVTLNGVPAQPLGPRAQLLLKATPEDNGRSFSCSATLEVAGQLIHKNQTRELRVLYGPRLDERDCPGNWTWPENSQQTPMCQAWGNPLPELKCLKDGTFPLPIGESVTVTRDLEGTYLCRARSTQGEVTRKVTVNVLSPRYE",Schild regression y-intercept,[1],8.51
same,IC50,[2],1200 nM
same,fold IC50 against compound 3,[3],> 100 fold

# Reference: patent publication US20090155176A1
